The source of these data is patent US9320760B2, “Compositions and methods of use of compounds to increase cancer patient survival time” (BioNumerik Pharmaceuticals, Inc., priority 2008, dated 2016).

Substrate in the data set: O=S(=O)(O)CCSSCCS(=O)(=O)O
Put plainly: purified protein, by the assay type. Conditions: pH 7.0; 25.0 °C.

As a reminder, the Km is the concentration of substrate that gives half-maximal velocity.

B1: Thioredoxin Reductase + Thioredoxin (Bos taurus) (protein)
chain: MVKQIESKYAFQEALNSAGEKLVVVDFSATWCGPCKMIKPFFHSLSEKYSNVVFLEVDVDDCQDVAAECEVKCMPTFQFFKKGQKVGEFSGANKEKLEATINELI
For B1, the Km was 72 µM.
